Laboratory results from article PMC10798628.

What was measured:
[1] = biological target: receptor for activated protein C kinase 1 (RACK1) (human (endogenous in Caco-2)) (UniProt P63244)
[2] = biological target: receptor for activated protein C kinase 1 (RACK1) (human (endogenous in Caco-2)) (UniProt P63244); remark: listed apart in the source

| Substance | expression level of RACK1 in Caco-2 cells treated with rTsSPc, Western blot, increase compared to the PBS group [1] [folds] | p-ERK1/2 level in Caco-2 cells treated with rTsSPc, Western blot, increase compared to the PBS group [1] [folds] | inhibition rate of anti-RACK1 antibody on T. spiralis IIL invasion of the Caco-2 monolayer, compared to the PBS group [2] [%] | inhibition rate of the RACK1 inhibitor HO on T. spiralis IIL invasion of the Caco-2 monolayer, compared to the PBS group [2] [%] |
| --- | --- | --- | --- | --- |
| recombinant Trichinella spiralis serine proteinase with GST tag (rTsSPc) (enzyme) | 2.11 | 18.3 | – | – |
| recombinant Trichinella spiralis serine proteinase with GST tag (rTsSPc) | – | – | 5.12 | 7.37 |
